The values below come from article PMC11402830.

The target of this test is T1, human peptidyl arginine deiminase 6 (human), Q6TGC4.
T1 chain: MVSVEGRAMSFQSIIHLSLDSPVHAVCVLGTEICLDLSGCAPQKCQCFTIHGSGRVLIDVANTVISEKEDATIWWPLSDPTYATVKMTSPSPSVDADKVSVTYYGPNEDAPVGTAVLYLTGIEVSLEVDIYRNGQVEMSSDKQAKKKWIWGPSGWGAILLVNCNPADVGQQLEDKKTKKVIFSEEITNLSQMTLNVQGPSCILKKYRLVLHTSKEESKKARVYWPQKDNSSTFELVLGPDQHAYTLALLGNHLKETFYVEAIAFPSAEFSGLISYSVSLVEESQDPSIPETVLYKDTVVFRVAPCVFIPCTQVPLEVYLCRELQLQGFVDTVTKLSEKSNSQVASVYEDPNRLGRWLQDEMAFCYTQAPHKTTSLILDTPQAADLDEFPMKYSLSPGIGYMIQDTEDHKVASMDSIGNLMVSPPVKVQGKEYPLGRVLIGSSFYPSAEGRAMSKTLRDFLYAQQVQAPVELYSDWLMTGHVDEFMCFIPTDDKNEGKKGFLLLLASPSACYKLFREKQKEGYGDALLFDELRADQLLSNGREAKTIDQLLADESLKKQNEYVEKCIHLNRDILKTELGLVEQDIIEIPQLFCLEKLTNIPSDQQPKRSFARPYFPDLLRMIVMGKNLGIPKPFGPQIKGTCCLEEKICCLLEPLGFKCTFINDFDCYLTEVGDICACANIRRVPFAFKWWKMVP
Kind of test: mass photometry; hPADI6 at 4 nM (diluted to about 40 nM in 50 mM Tris-HCl pH 7.5, 200 mM NaCl, 1 mM TCEP, then 2 uL into 18 uL PBS), TwoMP instrument; dimer to monomers. To be noted: remark: other sources report otherwise.

B1: human peptidyl arginine deiminase 6, Q6TGC4 1-694 (natural protein)
chain: MVSVEGRAMSFQSIIHLSLDSPVHAVCVLGTEICLDLSGCAPQKCQCFTIHGSGRVLIDVANTVISEKEDATIWWPLSDPTYATVKMTSPSPSVDADKVSVTYYGPNEDAPVGTAVLYLTGIEVSLEVDIYRNGQVEMSSDKQAKKKWIWGPSGWGAILLVNCNPADVGQQLEDKKTKKVIFSEEITNLSQMTLNVQGPSCILKKYRLVLHTSKEESKKARVYWPQKDNSSTFELVLGPDQHAYTLALLGNHLKETFYVEAIAFPSAEFSGLISYSVSLVEESQDPSIPETVLYKDTVVFRVAPCVFIPCTQVPLEVYLCRELQLQGFVDTVTKLSEKSNSQVASVYEDPNRLGRWLQDEMAFCYTQAPHKTTSLILDTPQAADLDEFPMKYSLSPGIGYMIQDTEDHKVASMDSIGNLMVSPPVKVQGKEYPLGRVLIGSSFYPSAEGRAMSKTLRDFLYAQQVQAPVELYSDWLMTGHVDEFMCFIPTDDKNEGKKGFLLLLASPSACYKLFREKQKEGYGDALLFDELRADQLLSNGREAKTIDQLLADESLKKQNEYVEKCIHLNRDILKTELGLVEQDIIEIPQLFCLEKLTNIPSDQQPKRSFARPYFPDLLRMIVMGKNLGIPKPFGPQIKGTCCLEEKICCLLEPLGFKCTFINDFDCYLTEVGDICACANIRRVPFAFKWWKMVP
For the molecule B1, the dimer:monomer ratio at 4 nM (dimer:monomer) was 8 and the stoichiometry N – broadly, the number of molecules, sites or subunits per partner or assembly – was 2.
